Data reported in patent US20240084003A1 (SIMCERE ZAIMING PHARMACEUTICAL, published 2024).
Where a chain is given by its changes, count along the chain named.

T1: human CD22-ECD-His protein (human, UniProt P20273 20-687)
T1 construct: Made in house in HEK293E; also called hCD22-ECD-His; recombinant human CD22-ECD His protein; not shown: His tag
T1 sequence: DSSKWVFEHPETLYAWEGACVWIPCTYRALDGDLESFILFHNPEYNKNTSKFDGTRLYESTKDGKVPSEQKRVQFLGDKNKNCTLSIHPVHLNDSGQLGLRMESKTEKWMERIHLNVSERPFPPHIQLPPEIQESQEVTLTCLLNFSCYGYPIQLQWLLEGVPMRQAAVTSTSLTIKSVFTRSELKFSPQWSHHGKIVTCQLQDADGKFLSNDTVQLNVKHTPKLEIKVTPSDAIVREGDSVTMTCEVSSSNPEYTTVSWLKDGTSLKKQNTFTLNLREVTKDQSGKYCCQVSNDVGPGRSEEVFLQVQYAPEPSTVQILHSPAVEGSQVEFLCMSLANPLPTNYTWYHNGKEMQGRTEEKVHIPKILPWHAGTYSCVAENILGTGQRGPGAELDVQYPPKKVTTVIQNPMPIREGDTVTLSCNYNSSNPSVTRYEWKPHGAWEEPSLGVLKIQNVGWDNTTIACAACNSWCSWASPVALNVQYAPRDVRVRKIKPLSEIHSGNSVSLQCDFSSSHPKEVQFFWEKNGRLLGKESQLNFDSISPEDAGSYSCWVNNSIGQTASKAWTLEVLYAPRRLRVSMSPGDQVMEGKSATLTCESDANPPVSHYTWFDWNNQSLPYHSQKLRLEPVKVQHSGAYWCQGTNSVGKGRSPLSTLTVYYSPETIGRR

T2: human CD22 domain1-4-His (human, UniProt P20273 20-425)
T2 construct: also called hCD22 domain1-4-His; not shown: His tag
T2 sequence: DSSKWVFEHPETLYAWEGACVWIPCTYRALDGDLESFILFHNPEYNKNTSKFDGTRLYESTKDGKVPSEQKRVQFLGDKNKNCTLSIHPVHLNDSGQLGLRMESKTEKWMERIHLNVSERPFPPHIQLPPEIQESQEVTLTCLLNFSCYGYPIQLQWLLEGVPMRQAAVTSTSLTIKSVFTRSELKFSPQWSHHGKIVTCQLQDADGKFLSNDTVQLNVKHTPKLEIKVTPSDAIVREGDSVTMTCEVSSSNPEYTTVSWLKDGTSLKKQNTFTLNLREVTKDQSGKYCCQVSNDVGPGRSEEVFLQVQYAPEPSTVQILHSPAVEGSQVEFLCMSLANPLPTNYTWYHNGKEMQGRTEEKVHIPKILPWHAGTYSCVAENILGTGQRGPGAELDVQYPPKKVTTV

T3: monkey CD22 protein (ACROBiosystems, SI2-R52Ha) (monkey (rhesus monkey in paragraph 148), UniProt H9G1X2 18-686)
T3 construct: extracellular domain; also called monkey CD22-ECD; monkey CD22-ECD-His
T3 sequence: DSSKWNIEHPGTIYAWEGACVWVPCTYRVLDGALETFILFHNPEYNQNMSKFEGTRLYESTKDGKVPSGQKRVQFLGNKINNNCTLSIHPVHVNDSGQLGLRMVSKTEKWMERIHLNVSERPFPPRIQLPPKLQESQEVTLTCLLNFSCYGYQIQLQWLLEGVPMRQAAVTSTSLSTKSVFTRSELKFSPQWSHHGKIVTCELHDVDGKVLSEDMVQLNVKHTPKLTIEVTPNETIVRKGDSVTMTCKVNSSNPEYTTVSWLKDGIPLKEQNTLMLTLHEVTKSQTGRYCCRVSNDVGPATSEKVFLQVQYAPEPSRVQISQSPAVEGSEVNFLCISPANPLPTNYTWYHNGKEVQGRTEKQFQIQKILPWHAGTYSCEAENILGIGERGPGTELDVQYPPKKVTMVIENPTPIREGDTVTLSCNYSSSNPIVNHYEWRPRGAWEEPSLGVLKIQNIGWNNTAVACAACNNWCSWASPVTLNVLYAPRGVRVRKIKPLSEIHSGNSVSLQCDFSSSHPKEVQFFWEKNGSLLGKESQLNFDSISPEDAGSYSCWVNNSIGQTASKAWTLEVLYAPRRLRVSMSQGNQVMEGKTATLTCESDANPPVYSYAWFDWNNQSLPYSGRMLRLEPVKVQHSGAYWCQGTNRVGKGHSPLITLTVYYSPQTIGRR

B1: F2.55.1 (antibody, human IgG1, lambda, V domains shown)
VH: QVTLKESGPGILQPSQTLSLTCSFSGFSLSTFPLGVGWIRQPSGKGLEWLAHVWWNDDDYYNPALKSRLTISKDTSNTRVFLSVASVDTAETATYYCARLNWDRWYFDVWGTGTTVTVSS
VL: QLVLTQSSSASFSLGASAKLTCTLSSQHSAYTVEWYQQQPLKPPKYVMELKKDGSHSTGDGIPDRFSGSSSGADRYLSISNIQPEDEAIYICGVGDTVKEQFVFGGGTKVTVLG
notes: Human-murine chimeric IgG1, lambda
B2: F1.245.2 (antibody, human IgG1, kappa, V domains shown)
VH: EVQLQQSGAELVKPGASVKLSCTGSGFNIKDYYIHWVKQRTEQGLEWMGRIDPEDGETEYAPKFQDEATITSDTSSNTAYLQLSSLTYEDTAVYYCAREAAGYFYRGSSYGYFDVWGTGTTVTVSS
VL: DFQMTQTTSFLSASLGDRVTISCSASQDISNYLNWYQQKPDGTVKLLIYYTSSLHSGVPSRFSGSGSGTDYSLTISNLEPEDIATYYCQQYSMLPYTFGGGTKLEMER
notes: Human-murine chimeric IgG1, kappa
B3: F1.200.11 (antibody, human IgG1, kappa, V domains shown)
VH: QNQLVQSGPELKKPGETVKISCKASGYTFTTAGMQWVQKMPGKGFKWIGWINTLSGEPKYAEDFKGRFAFSLETSATTAYLQISNLKNEDTATYFCARAYYSNLYWYFDVWGTGTTVTVSS
VL: DIVMTQSQKFMSTTVGDRVTITCKASQNVVTAVAWYQQKPGQSPKVLIYSASNRYSGVPDRFTGSGSGTDFTLTISNMHSEDLANYFCHQYSSYPFTFGSGTKLEIKR
notes: as for B2
B4: F2.205.9 (antibody, human IgG1, lambda, V domains shown)
VH: QVTLKESGPGILQPSQTLSLTCSFSGFSLSTSGMGVGWIRQPSGKGLEWLAHIWWDDDEYYNPALKSRLTISKDTSKNQVFLKIANVDTADTATYYCARISIPYGYYDWFFDVWGTGTTVTVSA
VL: QAVVTQESALTTSPGETVTLTCRSSTGAVTTRNYANWVQEKPDHLFTGLIGGTNNRAPGVPARFSGSLIGDKAALTITGAQTEDEAIYFCALWYSNHFIFGSGTKVTVLG
notes: as for B1
B5: F2.70.2 (antibody, human IgG1, lambda, V domains shown)
VH: EVQLVESGGGLVKPGGSLKLSCAASGFTFSDYGMNWFRQAPEKGLEWVAYISRGSHTIYYADTVKGRFTISRDNAKNTLFLQMTSLRSNDTAMYYCVRMAGYYAMDYWGQGTSVTVSS
VL: QLVLTQSSSASFSLGASAKLTCTLSSQHSSYIIEWYQQQPLKPPKYVMELKKDGSHSTGDGIPDRFSGSSSGADRYLSISNIQPEDEAIYICGVGDTIKEQFVYVFGGGTKVTVLG
notes: as for B1
B6: F2.104.10 (antibody, human IgG1, lambda, V domains shown)
VH: B5 VH with L11F, K76E, V114L
VL: B5 VL with L50V, P84S
notes: as for B1
B7: F1.120.15 (antibody, human IgG1, kappa, V domains shown)
VH: QVQLQQSGPELVKPGASVKISCKASGNAFSNSWMNWVKQRPGKGLEWIGRVYSEDGDTQYNGKFRDKATLTADRSTSTAYMQLSSLTSEDSAVYFCARWLIYYGTYGAMDYWGQGTSVTVSS
VL: DIQMTQTTSSLSASLGDRVTISCRASQDINNYLNWYHQKPDGTVKLLIYFTSRPYSGVPSRFSGSGSGTDYSLTISNLEQEDIATYFCQQGNTLPWTFGGGTKLEIKR
notes: as for B2
B8: F1.216.2 (antibody, human IgG1, kappa, V domains shown)
VH: QVQLQQSGPEVVRPGASVKISCKASGYAFSSSWMNWMKQRPGKALEWIGRIYPGDGDTNYSGEFKVKATLTADKSSSTAYMQLSSLTSEDSAVYFCAREGSYYSNPWYFDYWGQGTTLTVSS
VL: DVLVTQTPLSLPVSLGDQASISCRSSQSIVQSNGDTYLEWYLQKPGQSPKLLIYKVSNRFSGVPDRFSGSGSGTDFTLKISRVEAEDLGVYYCFQGSHVPFTFGSGTKLEIKR
notes: as for B2
B9: F1.17.1 (antibody, human IgG1, kappa, V domains shown)
VH: QVQLKESGPGLVAPSQSLSITCTVSGFSLSRYTVHWVRQPPGKGLEWLGMIWGGGSTDYNSALKSRLSISKDNSKSQVFLKMNSLQTDDTAMYYCARPHDFDAGGFAYWGQGTLVTVSA
VL: QIVLTQSPAILSTSPGEKVTMTCSASSRVNYMYWYQQKPGSSPRLLIYDTSNLASGVPVRFSGSGSGTSYSLTISRMEAEDAATYYCQQWTSYPLTFGAGTKLELKR
notes: as for B2

These binders were tested against T1, human CD22-ECD-His protein (assay: ELISA, Ab 0.01 nM).
Method in brief: (§1)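 TMB colour read-out, stopped with 1.0 N HCl after 30 min at room temperature, measures binding of CD22 human-murine chimeric antibodies to plate-coated CD22-ECD-His (2 μg/mL, overnight 4 °C). Antibody and HRP secondary steps each ran 2 h at 37 °C.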

| OD450 [OD450] | Binder |
| --- | --- |
| 1.3 | B1 |
| 2.3 | B2 |
| 2 | B3 |
| 1.48 | B4 |
| 1.56 | B5 |
| 1.7 | B6 |
| 2.28 | B7 |
| 2.48 | B8 |
| 1.85 | B9 |

These binders were tested against T2, human CD22 domain1-4-His (assay: ELISA, human CD22 domain1-4-His coated).

| EC50 (read off the curve) [pM] | binding result | Binder |
| --- | --- | --- |
| ~100 | – | B1 |
| ~20 | – | B2 |
| – | no binding (tested: 100 nM) | B3 |
| ~40 | – | B4 |
| ~30 | – | B5 |
| ~40 | – | B6 |
| ~200 | – | B7 |
| ~20 | – | B8 |
| ~100 | – | B9 |

The binders below were run against T1, human CD22-ECD-His protein (assay: ELISA, Ab 0.0001 nM).
Method in brief: as §1

| OD450 [OD450] | Binder |
| --- | --- |
| 0.23 | B1 |
| 0.44 | B2 |
| 0.51 | B3 |
| 0.24 | B4 |
| 0.18 | B5 |
| 0.32 | B6 |
| 0.42 | B7 |
| 0.45 | B8 |
| 0.2 | B9 |

The binders below were run against T1, human CD22-ECD-His protein (assay: ELISA, Ab 100.00 nM).
Method in brief: as §1

| OD450 [OD450] | Binder |
| --- | --- |
| 2.08 | B1 |
| 2.7 | B2 |
| 2.34 | B3 |
| 2.22 | B4 |
| 2.24 | B5 |
| 2.44 | B6 |
| 2.89 | B7 |
| 2.69 | B8 |
| 2.86 | B9 |

These binders were tested against T1, human CD22-ECD-His protein (assay: ELISA, Ab 10.00 nM).
Method in brief: as §1

| OD450 [OD450] | Binder |
| --- | --- |
| 2.16 | B1 |
| 2.54 | B2 |
| 2.33 | B3 |
| 2.11 | B4 |
| 2.03 | B5 |
| 2 | B6 |
| 2.61 | B7 |
| 2.53 | B8 |
| 2.21 | B9 |

The binders below were run against T1, human CD22-ECD-His protein (assay: ELISA, Ab 0.001 nM).
Method in brief: as §1

| OD450 [OD450] | Binder |
| --- | --- |
| 0.44 | B1 |
| 1.24 | B2 |
| 0.85 | B3 |
| 0.4 | B4 |
| 0.57 | B5 |
| 0.66 | B6 |
| 1.21 | B7 |
| 1.71 | B8 |
| 0.75 | B9 |

The binders below were run against T1, human CD22-ECD-His protein (assay: ELISA, human CD22-ECD-His coated).
Method in brief: as §1

| EC50 (read off the curve) [pM] | Binder |
| --- | --- |
| ~60 | B1 |
| ~10 | B2 |
| ~30 | B3 |
| ~60 | B4 |
| ~30 | B5 |
| ~30 | B6 |
| ~20 | B7 |
| ~6 | B8 |
| ~30 | B9 |

These binders were tested against T3, monkey CD22 protein (ACROBiosystems, …) (assay: ELISA, monkey CD22-ECD-His coated).
Method in brief: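 First, CD22 (2 μg/mL, PBS) was coated at 4° C overnight. Second, wells were blocked with PBS containing 2% BSA for 2 h at room temperature. Third, antibody and then HRP secondary were each incubated 2 h at 37° C. Finally, TMB colour was stopped with HCl.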

| EC50 (read off the curve) [pM] | binding result | Binder |
| --- | --- | --- |
| ~100 | – | B1 |
| – | no binding (tested: 100 nM) | B2 |
| ~1000 | – | B3 |
| ~30 | – | B4 |
| – | no binding (tested: 100 nM) | B5 |
| – | no binding (tested: 100 nM) | B6 |
| ~200 | – | B7 |
| ~10 | – | B8 |
| ~20 | – | B9 |
